Measured values: paper PMC8501077 (Nature Communications, 2021)

Columns and labels:
[1] = target: FLAG-tagged Sei1∆231-243, locking helix replaced by a flexible linker (S. cerevisiae) (UniProt Q06058); test: cryo-EM structure; single-particle cryo-EM of FLAG-purified protein in DDM/CHS (50 mM Tris.HCl pH7.4, 200 mM NaCl, 1 mM EDTA); C10 symmetry applied
[2] = target: the molecule itself; test: as above

Row | stoichiometry N [1] | Molecule | stoichiometry N [2]
1 | 10 | FLAG-tagged Sei1∆231-243, locking helix replaced by a flexible linker (from UniProt Q06058 1-230; Q06058 244-285) (natural protein) | 
2 |  | C-terminally 3xFLAG tagged Sei1 (yeast Seipin) (natural protein, S. cerevisiae, Sei1, the yeast Seipin, S. cerevisiae; model built for residues 24-132 and 145-265; also called Sei1-FLAG; WT Sei1; source: S. cerevisiae, plasmid-borne, in detergent extract of crude membranes; not shown: 3xFLAG, C-terminal, kept; copies: 10) MKINVSRPLQFLQWSSYIVVAFLIQLLIILPLSILIYHDFYLRLLPADSSNVVPLNTFNILNGVQFGTKFFQSIKSIPVGTDLPQTIDNGLSQLIPMRDNMEYKLDLNLQLYCQSKTDHLNLDNLLIDVYRGPGPLLGAPGGSNSKDEKIFHTSRPIVCLALTDSMSPQEIEQLGPSRLDVYDEEWLNTIRIEDKISLESSYETISVFLKTEIAQRNLIIHPESGIKFRMNFEQGLRNLMLRKRFLSYIIGISIFHCIICVLFFITGCTAFIFVRKGQEKSKKHS | 10
